How the values were obtained:
human B2M = assay: CRISPR/Cas9-mediated deletion of B2M in HEK293 (lipofection, FACS); assay type: cell-based; conditions: lipofection of tracrRNA, gRNA and Cas9 mRNA; FACS after 72 h
Protocol: One day before transfection, 500′000 HEK293cells (ATCC, Manassas, VA) were plated in a 35 mm dish and grown in DMEM/10%FBS. The following day, cells were transfected with a mixture of tracrRNA-gRNA-Cas9 mRNA. A stock of 10 micromolar was prepared resuspending 20 nanomoles of gRNA and 20 nanomoles tracrRNA in 2000 microlitre 10 millimolar Tris buffer pH7.4 each.
The mixture was added drop wise to the culture dish in 2.5 ml DMEM/10%FBS medium. The transfection reagent alone represented the transfection negative control.
After 6 h incubation in 5% CO2 at 37° C. medium was replaced with fresh DMEM/10%FBS medium. After 72 h in a 5% CO2 incubator cells were prepared for FACS analysis. FACS analysis: HEK293 cells were treated with Accutase (ThermoFisher, Cat # A1110501) for 20 minutes in 5% CO2 at 37° C. The reaction was stopped by using cell culture medium containing 10% Serum and transferred to a falcon tube for a centrifugation step (1000 rpm, 5 minutes). After aspirating the medium cells were resuspended in 200 microlitre FACS buffer (PBS/10%FBS).
To analyze the expression of B2M and HLA-ABC, 5 microlitre APC mouse anti-human β2-microglobulin antibody (Biolegend, Cat #316312) and 20 microlitre PE mouse anti-human HLA-ABC antibody (BD Bioscience, Cat # 560168) were added to the cell suspension and incubated for 30 minutes on ice. Cells were washed 3 times after antibody labelling with FACS buffer and resuspended in 500 microlitre in FACS buffer.
Each sample was transferred to one well of a round bottom 96 well plate and analyzed on a BD LSRFortessa X-20 device. FACS data were analyzed using BD FACSDiva software.

CD8+ T-cells = assay: LSC/T-cell reaction assay; assay type: cell-based, human; conditions: B2M/HLA-Class I negative LSCs co-cultured 10 days with CD8+ T-cells from 4 donors
Protocol: An LSC/T-cell assay was performed in flat bottom 96well synthemax coated plates in duplicates and incubated in 5% CO2 at 37° C. for 10 days. RPMI-1640 supplemented with HEPES (100 µM), non-essential aas (10x), sodium pyruvate (10 mM), 2-Mercapthoethanol (10x), 10% FBS and 1% Penicillin-Streptomycin (Gibco by Life Technologies) was used as medium for co-culture. Alternatively, RPMI-1640 supplemented with HEPES (10 mM), non-essential aas (1x), sodium pyruvate (1 mM), 2-Mercapthoethanol (1x), 10% FBS and 1% Penicillin-Streptomycin (Gibco by Life Technologies) was used as medium for co-culture.
One day before co-culture, LSCs (stimulator cells) were passed and cultured to a confluency of around 70% (30′000 - 50′000 cells) and cultured with LSC medium including compound. On day two, peripheral blood mononuclear cells (PBMC) were separated using EDTA blood with the Ficoll-Paque method (GE Healthcare Life Sciences, cat #17-1440-03). […]
After 10 days, CD8+ cells were transferred to a U-bottomed 96-well plate and washed 3 times using autoMAC rinsing solution (Miltenyi Biotec, Cat #130-091-222) including MACS BSA stock solution (Miltenyi Biotec, Cat #130-091-376). Cells were measured on a BD LSRFortessa X-20. FACS data were analyzed using BD FACSDiva software and FlowJo software.

B2M = assay: sgRNA screening for B2M knockout in LSCs (nucleofection, FACS); assay type: cell-based, human; conditions: Cas9 protein SEQ ID NO: 106, LSCs at passage 3, FACS after around 3 days
Protocol: Cells were cultured under these conditions for 24-48 hours at 37° C. in 5% CO2.
LSCs were nuclofected with selected gRNAs (Table 6) followed by FACS analysis / MACS separation.
After scraping the cells, the reaction was stopped by using cell culture medium containing 10% Serum and transferred to a falcon tube. After counting cells using Vi-cell 300′000 cells were prepared per reaction by transferring 300′000 cells in single tubes and centrifuged at 1000 rpm for 5 min. The supernatant was aspirated using manually pipetting to avoid cell loss and the cells were resuspended in the Stem cell nucleofector solution II (Lonza, Cat #VPH-5022). Resuspend cells in nucleofector solution immediately before adding the Cas9 RNP:sgRNA mixture. To obtain the nucleofection mixture, 5 µg high concentrated (≥5 µg/µl) Cas9 protein of SEQ ID NO: 106 (volume = 0.78 µl) was mixed with 19.5 µg sgRNA of Table 6 (volume = 12.2 µl) and incubated for 20 min at room temperature. […] The Cas9 protein-guideRNA complex was added to the cell suspension and transferred to the electroporation cuvette immediately. Cells were transfected using the nucelofector device (Lonza, Amaxa Nucleofector II) and program A023. After nucleofection cells were transferred from cuvette to one well of a 24 well synthemax coated plate containing pre-warmed LSC medium including 3 µM LATS compound and 10 µM Rock inhibitor Y-27632 (Nature 1997, vol. 389, pp. 990-994). Incubate LSCs in a 5% CO2 incubator for around 3 days until cells are 90% confluent.
LSCs were treated with TryLE®Express Enzym (ThermoFisher, Cat #12605010) for 15 minutes in 5% CO2 at 37° C. After scraping the cells, the reaction was stopped by using cell culture medium containing 10% Serum and transferred to a falcon tube for a centrifugation step (1000 rpm, 5 minutes). After aspirating the medium cells were resuspended in 200 µl FACS buffer (PBS/10%FBS).
To analyze the expression of B2M and HLA-ABC, 5 µl APC mouse anti-human β2-microglobulin antibody (Biolegend, Cat#316312) and 20 µl PE mouse anti-human HLA-ABC antibody (BD Bioscience, Cat # 560168) were added to the cell suspension and incubated for 30 minutes on ice.
Cells were washed 3 times after antibody labelling with FACS buffer and resuspended in 200 µl in FACS buffer (depending on the cell number).
FACS data were analyzed using BD FACSDiva software and FlowJo software.

B1: 1-CR004366: gRNA targeting human B2M; targeting domain SEQ ID NO: 108; sgRNA SEQ ID NO: 120; from Dharmacon (nucleic acid)
guide: GAGUAGCGCGAGCACAGCUAGUUUUAGAGCUAGAAAUAGCAAGUUAAAAUAAGGCUAGUCCGUUAUCAACUUGAAAAAGUGGCACCGAGUCGGUGCUUUU
modifications: listed as RNA, chemistry not given here
notes: gRNA targeting human B2M; from Dharmacon
- B2M knockout efficiency in HEK293 (human B2M): 70%
- T-cell immune response in co-culture with gene edited LSCs (CD8+ T-cells): almost completely eliminated
- B2M knockout efficiency in LSCs after nucleofection (B2M): 55%

Reference: US20230348852A1, “METHODS AND COMPOSITIONS FOR OCULAR CELL THERAPY” (NOVARTIS AG, priority 2020, published 2023)
